Laboratory results: paper PMC8184850, “Cryo-EM structure of TFIIH/Rad4–Rad23–Rad33 in damaged DNA opening in nucleotide excision repair” (Nature Communications, 2021)
Each block holds one binder with its values, some of them ahead of it.

Assays:
Settings in all cases: both partners purified
[1] = target: T1, Full-length Rad4–Rad23 complex (yeast, UniProt P14736 1-754; P32628 1-398); assay: co-sedimentation; 10–40% glycerol gradient (20 mM HEPES, 150 mM potassium acetate, 2 mM magnesium acetate, 4 mM DTT, 2 mM ATP or AMP-PNP), 52,000 rpm 6 h 35 min, 4 °C; Rad4–Rad23–Rad33 pre-assembled on −24*/+24 AAF-DNA, then added to TFIIH; fractions by SDS-PAGE
T1 construct: Rad4 (XPC homologue), yeast; Rad23 (RAD23B homologue), yeast; also called Rad4–23; yeast homologue of XPC–RAD23B
T1 sequence (looked up) 1: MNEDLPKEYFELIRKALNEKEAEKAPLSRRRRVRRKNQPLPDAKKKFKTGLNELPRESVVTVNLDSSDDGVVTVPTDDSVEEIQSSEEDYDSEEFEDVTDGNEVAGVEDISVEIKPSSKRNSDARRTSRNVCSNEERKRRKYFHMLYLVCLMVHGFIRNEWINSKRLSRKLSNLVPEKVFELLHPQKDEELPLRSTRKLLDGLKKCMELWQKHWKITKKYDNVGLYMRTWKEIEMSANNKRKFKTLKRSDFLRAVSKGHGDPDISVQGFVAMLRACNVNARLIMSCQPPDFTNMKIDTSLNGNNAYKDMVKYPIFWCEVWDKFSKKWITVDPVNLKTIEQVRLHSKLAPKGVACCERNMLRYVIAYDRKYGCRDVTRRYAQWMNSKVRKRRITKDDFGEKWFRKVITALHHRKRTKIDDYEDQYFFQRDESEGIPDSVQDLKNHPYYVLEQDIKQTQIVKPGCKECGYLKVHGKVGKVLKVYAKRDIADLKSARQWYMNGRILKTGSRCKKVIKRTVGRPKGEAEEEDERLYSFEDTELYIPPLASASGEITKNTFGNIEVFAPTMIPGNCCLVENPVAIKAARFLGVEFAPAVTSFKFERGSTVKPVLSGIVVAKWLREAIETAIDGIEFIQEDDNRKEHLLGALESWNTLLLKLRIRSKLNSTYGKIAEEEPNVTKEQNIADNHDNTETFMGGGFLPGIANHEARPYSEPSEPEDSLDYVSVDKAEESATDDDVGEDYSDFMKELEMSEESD
T1 sequence (looked up) 2: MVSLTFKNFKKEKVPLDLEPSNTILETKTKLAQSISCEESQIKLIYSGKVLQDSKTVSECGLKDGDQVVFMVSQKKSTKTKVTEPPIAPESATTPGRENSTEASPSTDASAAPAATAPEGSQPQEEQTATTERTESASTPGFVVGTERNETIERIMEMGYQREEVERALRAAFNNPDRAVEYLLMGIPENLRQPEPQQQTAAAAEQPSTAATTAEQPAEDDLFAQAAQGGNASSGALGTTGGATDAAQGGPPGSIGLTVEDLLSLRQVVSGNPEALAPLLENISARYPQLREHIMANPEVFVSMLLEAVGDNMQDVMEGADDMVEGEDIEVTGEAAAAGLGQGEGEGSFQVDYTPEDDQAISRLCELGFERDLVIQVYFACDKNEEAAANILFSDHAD

Rad4 = target: T2, Rad4 (yeast, UniProt P14736 1-754); assay: cryo-EM structure; coreTFIIH and Rad4–Rad23–Rad33 on −24*/+24 AAF-DNA with ATP, glycerol gradient with glutaraldehyde; Map 1 3.86 Å (TFIIH), Map 2 9.2 Å, Map 3 7.9 Å; Rad4, Rad33 and the Tfb1 PH domain placed by rigid-body docking of known structures or homology models
T2 construct: Rad4 (XPC homologue), yeast; Stood in the assays as part of Rad4–Rad23–Rad33; written alone for the contacts of the subunit; also called yeast homologue of XPC; source: Hi5 insect cells, co-expressed with Rad23, purified as the Rad4–Rad23 complex
T2 sequence (looked up): T1 sequence (looked up) 1

Ssl2 = target: T3, Ssl2 (Saccharomyces cerevisiae, UniProt Q00578 1-843); assay: as above
T3 construct: Ssl2 (XPB homologue), subunit of yeast coreTFIIH; C-Ssl2 549–776, C-terminal region 771–843 as printed; Stood in the assays as part of coreTFIIH; also called yeast homologue of XPB; source: purified from yeast as a subunit of coreTFIIH
T3 sequence (looked up): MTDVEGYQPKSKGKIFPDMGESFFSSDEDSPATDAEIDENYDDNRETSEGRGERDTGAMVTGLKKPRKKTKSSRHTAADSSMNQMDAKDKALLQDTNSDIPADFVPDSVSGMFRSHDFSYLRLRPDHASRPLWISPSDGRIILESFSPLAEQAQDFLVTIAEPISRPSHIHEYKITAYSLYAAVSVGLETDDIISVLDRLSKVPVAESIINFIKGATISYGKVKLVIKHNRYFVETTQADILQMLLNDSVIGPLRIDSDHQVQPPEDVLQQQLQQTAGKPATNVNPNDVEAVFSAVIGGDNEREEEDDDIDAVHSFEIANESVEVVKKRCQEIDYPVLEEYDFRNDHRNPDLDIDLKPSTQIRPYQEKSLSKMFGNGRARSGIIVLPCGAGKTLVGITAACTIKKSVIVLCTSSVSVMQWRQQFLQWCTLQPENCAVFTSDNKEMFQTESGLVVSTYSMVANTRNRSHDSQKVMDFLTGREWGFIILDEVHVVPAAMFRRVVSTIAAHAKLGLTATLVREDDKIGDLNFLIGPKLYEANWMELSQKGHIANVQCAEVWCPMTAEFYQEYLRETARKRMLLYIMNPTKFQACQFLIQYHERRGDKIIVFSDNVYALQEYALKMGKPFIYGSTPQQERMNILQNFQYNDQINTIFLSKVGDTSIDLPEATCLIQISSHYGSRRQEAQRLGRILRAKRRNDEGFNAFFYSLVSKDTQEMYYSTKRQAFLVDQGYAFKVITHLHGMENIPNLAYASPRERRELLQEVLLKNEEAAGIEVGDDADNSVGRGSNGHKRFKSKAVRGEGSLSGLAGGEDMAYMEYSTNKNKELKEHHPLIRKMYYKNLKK

Rad4–Rad23–Rad33 complex = target: T4, Rad4–Rad23–Rad33 complex (yeast, UniProt P14736 1-754; P32628 1-398; Q04231 1-177); assay: cross-linking; XL-MS: TFIIH/Rad4–Rad23–Rad33 assembled on −24/+24 AAF-DNA, 1 mg/mL in 20 mM HEPES pH 7.6, 300 mM potassium acetate, 5% glycerol, 5 mM DTT; 6 mM DSBU on ice 2 h; MeroX, FDR <1%
T4 construct: Rad4 (XPC homologue), yeast; Rad23 (RAD23B homologue), yeast; Rad33 (CETN2 homologue), yeast; plasmid pETDuet-RAD33; also called Rad4–23–33; yeast homologue of XPC–RAD23B–CETN2; copies: + +
T4 sequence 1: T1 sequence (looked up) 1
T4 sequence 2: T1 sequence (looked up) 2
T4 sequence 3: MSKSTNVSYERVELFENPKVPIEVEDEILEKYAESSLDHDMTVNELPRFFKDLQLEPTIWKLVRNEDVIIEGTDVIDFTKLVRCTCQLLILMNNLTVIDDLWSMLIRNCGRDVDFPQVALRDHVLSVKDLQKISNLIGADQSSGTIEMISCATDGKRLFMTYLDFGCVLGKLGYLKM

Rad3 = target: T5, Rad3 (yeast, UniProt P06839 1-778); assay: cryo-EM structure; coreTFIIH and Rad4–Rad23–Rad33 on −24*/+24 AAF-DNA with ATP, glycerol gradient with glutaraldehyde; Map 1 3.86 Å (TFIIH), Map 2 9.2 Å, Map 3 7.9 Å; Rad4, Rad33 and the Tfb1 PH domain placed by rigid-body docking of known structures or homology models
T5 construct: Rad3 (XPD homologue), subunit of yeast coreTFIIH; Stood in the assays as part of coreTFIIH; also called yeast homologue of XPD; source: purified from yeast as a subunit of coreTFIIH
T5 sequence (looked up): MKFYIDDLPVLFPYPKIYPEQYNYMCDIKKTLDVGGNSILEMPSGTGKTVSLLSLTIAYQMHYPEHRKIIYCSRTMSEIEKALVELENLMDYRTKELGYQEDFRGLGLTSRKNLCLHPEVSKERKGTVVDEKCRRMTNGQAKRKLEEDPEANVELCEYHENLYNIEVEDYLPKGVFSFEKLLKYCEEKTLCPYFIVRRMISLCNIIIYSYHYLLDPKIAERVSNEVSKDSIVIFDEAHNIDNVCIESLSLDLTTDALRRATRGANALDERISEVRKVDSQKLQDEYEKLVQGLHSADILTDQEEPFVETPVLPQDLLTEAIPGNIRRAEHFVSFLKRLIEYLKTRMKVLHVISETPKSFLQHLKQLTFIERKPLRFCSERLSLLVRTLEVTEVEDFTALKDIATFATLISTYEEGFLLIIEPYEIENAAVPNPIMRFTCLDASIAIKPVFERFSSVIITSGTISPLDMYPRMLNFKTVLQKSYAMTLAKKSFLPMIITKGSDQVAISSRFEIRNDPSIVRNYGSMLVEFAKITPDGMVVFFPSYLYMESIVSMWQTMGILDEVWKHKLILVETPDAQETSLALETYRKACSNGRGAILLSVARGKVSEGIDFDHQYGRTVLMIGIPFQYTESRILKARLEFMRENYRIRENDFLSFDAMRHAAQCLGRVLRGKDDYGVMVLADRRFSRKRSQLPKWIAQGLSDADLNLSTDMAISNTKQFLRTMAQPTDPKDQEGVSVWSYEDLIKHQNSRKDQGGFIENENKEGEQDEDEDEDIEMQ

Tfb2 = target: T6, Tfb2 (yeast, UniProt Q02939 1-513); assay: as above
T6 construct: Tfb2 (p52 homologue), subunit of yeast coreTFIIH; Tfb2C 412–513 as printed; Stood in the assays as part of coreTFIIH; also called yeast homologue of p52; source: purified from yeast as a subunit of coreTFIIH
T6 sequence (looked up): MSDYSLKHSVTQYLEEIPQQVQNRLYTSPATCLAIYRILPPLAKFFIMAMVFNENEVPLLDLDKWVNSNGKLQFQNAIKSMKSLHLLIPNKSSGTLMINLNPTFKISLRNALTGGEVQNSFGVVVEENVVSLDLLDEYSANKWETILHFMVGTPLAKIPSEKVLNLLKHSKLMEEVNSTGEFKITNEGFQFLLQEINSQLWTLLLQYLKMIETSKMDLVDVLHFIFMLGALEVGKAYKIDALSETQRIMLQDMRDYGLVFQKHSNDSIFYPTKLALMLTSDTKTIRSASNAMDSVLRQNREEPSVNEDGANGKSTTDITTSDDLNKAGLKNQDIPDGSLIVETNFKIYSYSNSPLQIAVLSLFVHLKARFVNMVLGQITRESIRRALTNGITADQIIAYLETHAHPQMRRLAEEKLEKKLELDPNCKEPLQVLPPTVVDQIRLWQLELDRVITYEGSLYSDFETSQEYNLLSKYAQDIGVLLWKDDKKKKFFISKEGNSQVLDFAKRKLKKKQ

binding result [1]: binds | binding result (Rad4): binds | binding result (Ssl2): binds
B1: Rad33 (natural protein, yeast)
chain: T4 sequence 3
notes: Rad33 (CETN2 homologue), yeast; plasmid pETDuet-RAD33; also called yeast homologue of CETN2; source: E. coli Rosetta(DE3), purified (HisTrap, Q column)

binding result (Rad4–Rad23–Rad33 complex): binds | binding result (Rad3): binds | binding result (Rad4): binds
B2: Tfb1 (natural protein, yeast, UniProt P32776 1-642, looked up)
chain: MSHSGAAIFEKVSGIIAINEDVSPAELTWRSTDGDKVHTVVLSTIDKLQATPASSEKMMLRLIGKVDESKKRKDNEGNEVVPKPQRHMFSFNNRTVMDNIKMTLQQIISRYKDADIYEEKRRREESAQHTETPMSSSSVTAGTPTPHLDTPQLNNGAPLINTAKLDDSLSKEKLLTNLKLQQSLLKGNKVLMKVFQETVINAGLPPSEFWSTRIPLLRAFALSTSQKVGPYNVLSTIKPVASSENKVNVNLSREKILNIFENYPIVKKAYTDNVPKNFKEPEFWARFFSSKLFRKLRGEKIMQNDRGDVIIDRYLTLDQEFDRKDDDMLLHPVKKIIDLDGNIQDDPVVRGNRPDFTMQPGVDINGNSDGTVDILKGMNRLSEKMIMALKNEYSRTNLQNKSNITNDEEDEDNDERNELKIDDLNESYKTNYAIIHLKRNAHEKTTDNDAKSSADSIKNADLKVSNQQMLQQLSLVMDNLINKLDLNQVVPNNEVSNKINKRVITAIKINAKQAKHNNVNSALGSFVDNTSQANELEVKSTLPIDLLESCRMLHTTCCEFLKHFYIHFQSGEQKQASTVKKLYNHLKDCIEKLNELFQDVLNGDGESMSNTCTAYLKPVLNSITLATHKYDEYFNEYNNNSN
notes: Tfb1 (p62 homologue), subunit of yeast coreTFIIH; Stood in the assays as part of coreTFIIH; also called yeast homologue of p62; source: purified from yeast as a subunit of coreTFIIH

binding result (Tfb2): binds
B3: Tfb5 (natural protein, yeast, UniProt Q3E7C1 1-72, looked up)
chain: MARARKGALVQCDPSIKALILQIDAKMSDIVLEELDDTHLLVNPSKVEFVKHELNRLLSKNIYNPMDEEENQ
notes: Tfb5 (p8 homologue), subunit of yeast coreTFIIH; Stood in the assays as part of coreTFIIH; also called yeast homologue of p8; source: purified from yeast as a subunit of coreTFIIH
